Source: PMC3272839

Target: LRP1 minireceptor of domain IV, mLRP4 (UniProt Q07954)
Test: flow cytometry on cells

Sequence of UniProt Q07954 (Q07954 20-4544): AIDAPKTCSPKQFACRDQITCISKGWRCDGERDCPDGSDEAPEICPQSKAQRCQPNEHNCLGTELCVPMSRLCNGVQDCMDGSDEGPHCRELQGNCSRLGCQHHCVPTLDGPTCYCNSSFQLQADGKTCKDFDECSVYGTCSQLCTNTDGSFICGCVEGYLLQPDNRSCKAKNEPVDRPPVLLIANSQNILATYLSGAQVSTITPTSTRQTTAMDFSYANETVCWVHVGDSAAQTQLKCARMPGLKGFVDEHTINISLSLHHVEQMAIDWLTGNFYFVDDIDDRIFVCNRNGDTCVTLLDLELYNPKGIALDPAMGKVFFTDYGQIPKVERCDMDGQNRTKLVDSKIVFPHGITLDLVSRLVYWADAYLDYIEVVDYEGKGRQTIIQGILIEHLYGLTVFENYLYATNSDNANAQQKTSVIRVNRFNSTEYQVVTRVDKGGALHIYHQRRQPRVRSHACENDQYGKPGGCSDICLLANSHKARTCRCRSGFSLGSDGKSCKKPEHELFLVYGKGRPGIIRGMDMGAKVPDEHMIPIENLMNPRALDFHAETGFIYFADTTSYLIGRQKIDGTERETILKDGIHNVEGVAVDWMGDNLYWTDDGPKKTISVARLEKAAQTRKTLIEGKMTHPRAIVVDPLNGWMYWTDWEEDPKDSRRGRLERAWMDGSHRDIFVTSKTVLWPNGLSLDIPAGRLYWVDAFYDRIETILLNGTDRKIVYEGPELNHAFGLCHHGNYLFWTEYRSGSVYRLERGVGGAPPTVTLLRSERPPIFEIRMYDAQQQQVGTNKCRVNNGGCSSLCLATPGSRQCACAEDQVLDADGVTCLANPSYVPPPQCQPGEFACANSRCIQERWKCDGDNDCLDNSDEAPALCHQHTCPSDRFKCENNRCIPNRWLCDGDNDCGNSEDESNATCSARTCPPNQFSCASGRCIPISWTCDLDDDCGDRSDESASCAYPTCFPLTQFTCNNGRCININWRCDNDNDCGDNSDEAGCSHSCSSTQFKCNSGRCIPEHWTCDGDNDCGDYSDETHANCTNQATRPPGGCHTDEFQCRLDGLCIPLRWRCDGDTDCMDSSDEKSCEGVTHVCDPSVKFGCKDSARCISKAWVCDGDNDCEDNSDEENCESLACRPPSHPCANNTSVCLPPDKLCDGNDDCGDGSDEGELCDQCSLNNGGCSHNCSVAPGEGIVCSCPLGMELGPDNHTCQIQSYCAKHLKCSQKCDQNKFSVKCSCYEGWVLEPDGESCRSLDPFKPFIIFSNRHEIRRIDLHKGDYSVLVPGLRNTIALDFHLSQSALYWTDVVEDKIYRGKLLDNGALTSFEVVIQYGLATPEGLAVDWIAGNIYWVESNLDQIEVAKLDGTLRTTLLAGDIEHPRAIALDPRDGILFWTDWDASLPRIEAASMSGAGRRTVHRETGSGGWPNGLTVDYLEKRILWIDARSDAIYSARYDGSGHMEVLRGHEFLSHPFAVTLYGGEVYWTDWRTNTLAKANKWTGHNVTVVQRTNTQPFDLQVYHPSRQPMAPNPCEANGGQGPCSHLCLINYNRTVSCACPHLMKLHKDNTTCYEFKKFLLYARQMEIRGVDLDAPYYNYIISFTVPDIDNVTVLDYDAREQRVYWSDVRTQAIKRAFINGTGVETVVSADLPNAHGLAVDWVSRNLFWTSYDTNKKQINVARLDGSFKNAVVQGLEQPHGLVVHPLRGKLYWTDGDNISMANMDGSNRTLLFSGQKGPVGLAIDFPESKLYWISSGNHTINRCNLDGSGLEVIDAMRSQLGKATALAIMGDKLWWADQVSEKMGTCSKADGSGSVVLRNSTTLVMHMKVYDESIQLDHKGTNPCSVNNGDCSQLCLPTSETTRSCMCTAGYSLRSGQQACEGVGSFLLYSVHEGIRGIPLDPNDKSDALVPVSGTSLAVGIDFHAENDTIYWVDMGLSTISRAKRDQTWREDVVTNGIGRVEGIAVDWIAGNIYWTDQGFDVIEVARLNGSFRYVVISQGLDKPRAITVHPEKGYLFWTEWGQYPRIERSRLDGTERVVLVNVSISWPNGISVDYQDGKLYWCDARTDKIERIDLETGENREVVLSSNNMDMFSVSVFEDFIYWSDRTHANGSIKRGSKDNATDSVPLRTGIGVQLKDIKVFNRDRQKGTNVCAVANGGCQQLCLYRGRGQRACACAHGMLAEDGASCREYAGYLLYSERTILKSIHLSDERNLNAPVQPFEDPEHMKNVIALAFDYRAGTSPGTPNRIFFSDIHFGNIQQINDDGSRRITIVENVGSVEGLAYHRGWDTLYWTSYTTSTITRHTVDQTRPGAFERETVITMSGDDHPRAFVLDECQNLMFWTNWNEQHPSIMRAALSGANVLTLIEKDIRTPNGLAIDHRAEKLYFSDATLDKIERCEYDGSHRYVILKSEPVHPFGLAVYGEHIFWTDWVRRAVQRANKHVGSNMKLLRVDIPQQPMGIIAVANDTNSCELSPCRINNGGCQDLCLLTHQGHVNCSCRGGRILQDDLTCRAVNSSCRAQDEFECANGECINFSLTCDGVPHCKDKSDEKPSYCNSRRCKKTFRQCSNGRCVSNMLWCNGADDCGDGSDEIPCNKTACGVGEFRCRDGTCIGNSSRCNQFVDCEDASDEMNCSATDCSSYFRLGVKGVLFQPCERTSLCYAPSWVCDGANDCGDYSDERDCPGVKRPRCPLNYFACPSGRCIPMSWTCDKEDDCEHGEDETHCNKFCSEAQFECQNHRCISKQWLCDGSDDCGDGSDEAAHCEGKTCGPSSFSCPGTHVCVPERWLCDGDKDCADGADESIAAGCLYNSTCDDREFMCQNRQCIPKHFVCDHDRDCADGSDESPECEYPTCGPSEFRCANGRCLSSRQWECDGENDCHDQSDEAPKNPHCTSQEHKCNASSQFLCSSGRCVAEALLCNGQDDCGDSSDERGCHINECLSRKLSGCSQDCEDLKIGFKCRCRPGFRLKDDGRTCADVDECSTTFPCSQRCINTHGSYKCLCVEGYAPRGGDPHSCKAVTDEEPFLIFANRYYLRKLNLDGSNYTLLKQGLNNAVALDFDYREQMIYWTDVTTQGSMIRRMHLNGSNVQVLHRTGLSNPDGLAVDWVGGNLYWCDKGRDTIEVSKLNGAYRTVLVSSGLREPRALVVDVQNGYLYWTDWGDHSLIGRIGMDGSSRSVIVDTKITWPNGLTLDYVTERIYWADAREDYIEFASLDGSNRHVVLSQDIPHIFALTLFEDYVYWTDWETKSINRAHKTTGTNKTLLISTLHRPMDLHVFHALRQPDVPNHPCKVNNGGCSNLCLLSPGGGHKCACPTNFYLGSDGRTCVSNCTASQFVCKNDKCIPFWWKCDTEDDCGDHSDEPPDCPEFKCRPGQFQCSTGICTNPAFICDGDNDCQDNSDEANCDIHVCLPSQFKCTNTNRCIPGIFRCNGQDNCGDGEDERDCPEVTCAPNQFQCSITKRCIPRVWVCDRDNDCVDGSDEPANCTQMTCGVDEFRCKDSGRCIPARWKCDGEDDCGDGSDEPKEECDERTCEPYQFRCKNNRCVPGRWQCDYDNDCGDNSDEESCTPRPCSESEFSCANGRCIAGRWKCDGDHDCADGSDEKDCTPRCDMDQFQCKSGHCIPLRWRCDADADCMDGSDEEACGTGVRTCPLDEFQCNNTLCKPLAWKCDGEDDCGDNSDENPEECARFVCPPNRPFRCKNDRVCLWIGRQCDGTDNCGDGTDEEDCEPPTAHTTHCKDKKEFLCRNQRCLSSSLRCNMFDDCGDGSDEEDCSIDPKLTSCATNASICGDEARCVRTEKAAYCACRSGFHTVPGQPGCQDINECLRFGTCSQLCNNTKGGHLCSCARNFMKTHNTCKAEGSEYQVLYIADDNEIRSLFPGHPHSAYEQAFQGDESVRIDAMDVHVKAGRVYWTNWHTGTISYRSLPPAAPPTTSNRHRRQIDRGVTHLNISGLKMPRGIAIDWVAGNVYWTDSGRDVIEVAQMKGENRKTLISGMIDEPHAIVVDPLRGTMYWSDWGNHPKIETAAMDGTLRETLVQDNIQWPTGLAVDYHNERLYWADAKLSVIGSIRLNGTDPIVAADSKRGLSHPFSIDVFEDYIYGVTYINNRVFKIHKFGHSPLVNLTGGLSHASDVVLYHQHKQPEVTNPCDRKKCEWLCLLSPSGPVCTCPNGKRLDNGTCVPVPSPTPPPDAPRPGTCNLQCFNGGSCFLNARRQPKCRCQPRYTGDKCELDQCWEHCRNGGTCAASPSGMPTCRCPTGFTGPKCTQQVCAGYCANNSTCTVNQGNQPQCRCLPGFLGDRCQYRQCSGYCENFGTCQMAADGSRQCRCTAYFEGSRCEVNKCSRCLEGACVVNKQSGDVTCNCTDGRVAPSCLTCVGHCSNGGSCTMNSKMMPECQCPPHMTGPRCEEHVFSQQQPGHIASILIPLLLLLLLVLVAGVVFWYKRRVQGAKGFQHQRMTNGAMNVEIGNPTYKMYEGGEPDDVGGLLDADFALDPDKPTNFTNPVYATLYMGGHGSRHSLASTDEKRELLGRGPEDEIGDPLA

Alexa488-labeled receptor-associated protein (RAP) (from UniProt P30533 35-357) (ligand)
fold RAP binding against N2a-pcDNA3 cells (fold of N2a-pcDNA3 cells): 2.2
